Measured values published in patent publication US20240424106A1, “CONJUGATE PHARMACEUTICAL PREPARATION, PREPARATION METHOD THEREFOR AND USE THEREOF” (COHERENT BIOPHARMA (SUZHOU) LIMITED, priority 2021, published 2024).

Experiments:
[1] = Screening of amount of pH regulator: dissolution in intermediate solutions; format: physicochemical; conditions: 0.5% sodium citrate solution after mannitol was added and CR19213 was dissolved
Procedure: The solubility of CR19213 is related to the pH value of a solution, and the amount of the pH regulator (expressed as the concentration of a buffer salt) directly influences the pH value of the solution. Therefore, the concentration of the buffer salt needs to be screened. Since CR19213 was added to the sodium citrate solution with pH 7.0, and completely dissolved to form an acidic solution, a 1.0% sodium citrate solution (11.4 mg/mL) with pH 7.5 (regulated with citric acid) was prepared in order to make the finished product be more near-neutral, and diluted with water to obtain sodium citrate solutions at concentrations of 0.1%, 0.25%, and 0.5%, respectively. Intermediate solutions were prepared using the above-mentioned sodium citrate solutions with different concentrations. The dissolution in the intermediate solutions during the preparation were investigated.
(1) a 1.0% sodium citrate solution with pH 7.5 (regulated with citric acid) was prepared for later use;
(2) dilution was carried out with water to obtain 0.1%, 0.25% and 0.5% sodium citrate solutions, respectively;
(3) a prescribed amount of mannitol was weighed, 70% of the total amount of the sodium citrate solution was added, stirring was carried out for dissolution, then a prescribed amount of CR19213 was added, and stirring was carried out for dissolution in a dark place at room temperature; and […]

[2] = Stated solubility and sensitivity of CR19213

For `CCC(C)C(C(CC(=O)N1CCCC1C(OC)C(C)C(=O)NC(C)C(O)c1ccccc1)OC)N(C)C(=O)C(NC(=O)C(C(C)C)N(C)C(=O)OCc1ccc(NC(=O)C(CCCNC(N)=O)NC(=O)C(NC(=O)CCCCCN2C(=O)CC(SCC(NC(=O)C(CCCCN)NC(=O)C(CC(=O)O)NC(=O)C(CC(=O)O)NC(=O)Cc3ccc(CNC(=O)NCCCCC(NC(=O)NC(CCC(=O)O)C(=O)O)C(=O)O)cc3)C(=O)NC(CCCCNC(=O)CCC(NC(=O)c3ccc(NCc4cnc5[nH]c(N)nc(=O)c5n4)cc3)C(=O)O)C(N)=O)C2=O)C(C)C)cc1)C(C)C` (stereo not drawn) [CR19213], the pH value [1] was 5.95, the Oxidation in solution [2] was “easily oxidized” and the Sensitivity to temperature [2] was “sensitive”. The Solubility in water [2] was “poorly soluble”, the “Stability to acids and alkalis” value [2] was “unstable” and the Sensitivity to illumination ([2]; raw material) was “sensitive”.
